Laboratory results reported in patent US20250215092A1 (ZHEJIANG NANOMAB TECHNOLOGY CENTER, published 2025).

Columns and labels:
[1] = target: T1, Mouse EGFR Protein, His Tag (Acro, Cat #EGR-M5224) (mouse, UniProt Q01279 25-647); experiment: ELISA, coated antigen 1 ug/mL, antibody 50 nM
T1 construct: extracellular domain; Bought protein; not shown: His tag
Method: (§1) ELISA was used to identify the binding of VHH-IgG4 antibodies to the extracellular domains of mouse EGFR, monkey EGFR, and human EGFR proteins. The detection steps were as follows: Mouse EGFR Protein, His Tag (Acro, Cat #EGR-M5224) and Rhesus macaque EGFR Protein, His Tag (Acro, Cat #EGR-C52H1) were diluted to 1 μg/mL with phosphate buffer, and 100 μL of each dilution was added to a 96-well ELISA plate and coated overnight at 4° C. The next day, the plates were washed twice with PBST (containing 0.5% TWEEN-20) and then blocked with 3% BSA at 37° C. for 1.5 h, followed by two washes with PBST. VHH-IgG4 antibodies were diluted to 50 nM, and 100 μL of the dilution was added to each well and incubated at 37° C. for 1 h. The plates were then washed three times with PBST, and 100 μL of HRP-labeled goat anti-human IgG Fc antibody (1:10000, Bethyl) was added to each well and incubated at 37° C. for another 40 min. After washing the plates four times with PBST, 100 μL of TMB substrate was added to each well, and the reaction was allowed to proceed for 3-5 min. The reaction was stopped by adding 100 μL of 3N hydrochloric acid per well. After stopping the reaction, the optical density at 450/650 nm was measured using a Tecan microplate reader.

[2] = target: T2, Rhesus macaque EGFR Protein, His Tag (Acro, Cat #EGR-C52H1) (rhesus macaque, UniProt P55245 25-645); experiment: ELISA, coated antigen 1 ug/mL, antibody 50 nM
T2 construct: extracellular domain; Bought protein; also called Monkey EGFR; not shown: His tag
Method: as §1

[3] = target: T3, human EGFR.His antigen (Acro, Cat #EGR-H522a) (human, UniProt P00533 25-645); experiment: SPR, antibody captured on protein A, EGFR.His in flow
T3 construct: extracellular domain; Bought protein; also called EGFR his tag protein; full-length EGFR extracellular domain protein; not shown: His tag
Method: The binding kinetics and affinity of candidate antibody to human EGFR.His antigen were determined using surface plasmon resonance (SPR). The purified antibody was flowed through the sensor chips pre-immobilized with protein A, and the antibody was captured by protein A. Then five different concentrations of EGFR.His protein were used as the mobile phase, and the binding time and dissociation time were […], respectively. The binding rate (kon), dissociation rate (koff), and equilibrium constant (kD) were analyzed using Biacore Evaluation Software 2.0 (GE). EC225, an antibody that binds to region III of human EGFR, was selected as a positive control (sequence source https.//go.drugbank.com/drugs/DB00002).

[4] = target: T4, EGFR-D1D2 (L25-A310, P00533-1 (uniprot)) his tag antigen (human, UniProt P00533 25-310); experiment: ELISA: EGFR-D1D2 his tag antigen coated at 0.5 µg/mL, antibody at 2000, 200, 20, 2 nM, HRP goat anti-human IgG Fc, OD450
T4 construct: range 25-310; also called I+II domain protein; EGFR-D1D2 protein; not shown: His tag
Method: (§2) (2) Protein Binding Epitope Analysis: ELISA was used to determine the binding of VHH-IgG4 antibody to each domain of EGFR extracellular protein. Briefly, EGFR his tag protein, and EGFR-V3-his tag antigen protein were diluted to 1 μg/mL, EGFR-D1D2 (L25-A310, P00533-1 (uniprot)), and EGFR-D4 (F481-S645, P00533-1 (uniprot)) his tag antigen were diluted to 0.5 μg/mL, and each well of an ELISA plate was coated with […] antigen and incubated overnight at 4° C. The next day, the plates were washed twice with PBST (added with 0.5% TWEEN-20), then blocked with 3% BSA at 37° C. for 1.5 h, and then washed twice with PBST. Then, the antibody to be tested was diluted to 50 nM, 5 nM, 0.5 nM, 0.05 nM, and added to the wells coated with EGFR his tag protein or EGFR-V3-his tag antigen at 100 µL/well, respectively. The antibody was diluted to 2000 nM, 200 nM, 20 nM, 2 nM, and added to the wells coated with EGFR his tag protein or EGFR-V3-his tag antigen at 100 µL/well, respectively. The ELISA plates were incubated at 37° C. for 1 h. The plates were then washed three times with PBST, and then 100 μL HRP labeled Goat anti human IgG Fc antibody (1:10000, Bethyl) was added into each well, and incubated at 37° C. for another 40 min. After washing the plates four times with PBST, 100 μL of TMB substrate was added to each well, and the reaction was allowed to proceed for 3-5 min. The reaction was stopped by adding 100 μL of 3N hydrochloric acid per well. After stopping the reaction, the optical density at 450/650 nm was measured using a Tecan microplate reader.

[5] = target: T5, EGFR on SKOV3 and Aspc-1 tumor cells (human, UniProt P00533); experiment: flow cytometry on SKOV3 tumor cells, anti-human IgG PE, MFI, curve fit; unit from the concentration axis and paragraph 62 [table]
T5 construct: endogenous, on the cell surface; the cell line is named under assay; also called tumor cell EGFR
Method: (§3) Two kinds of tumor cells, SKOV3 and Aspc-1, expressing EGFR were respectively plated in 96 well plates, with 3×10⁵ cells per well, and then the tumor cells were incubated with gradient diluted VHH-IgG4 antibody. After incubation on ice for half an hour, anti human IgG PE (Jackson Immuno Research, Code: 109-117-008, Lot:145501) was added for incubation, and then CytoFLEX flow cytometry was used for detection. The EC50 of the antibody was calculated by curve fitting.

[6] = target: T6, Region III of EGFR expressed on HEK293T cells (human, UniProt P00533); experiment: flow cytometry on HEK293T cells expressing EGFR region III, anti-human IgG PE, MFI, curve fit; unit from the concentration axis and paragraph 62 [table]
T6 construct: also called HEK293T EGFR-III cells; stably transformed cell line 293T overexpressing EGFR III region protein
Method: HEK293T cells that express Region III of EGFR (i.e., HEK293T […] cells) were plated in a 96-well plate with 3×10⁵ cells/well, and then HEK293T […] cells were incubated with gradient diluted VHH-IgG4 antibody. After incubation for half an hour, anti-human IgG PE (Jackson Immuno Research, Code: 109-117-008, Lot:145501) as the secondary antibody for detection was added for incubation, and then CytoFLEX flow cytometer was used for detection. The EC50 of the antibody was calculated by curve fitting with Graphprism8.0 software. Isotype 1 in the figure is a negative control, and its amino acid sequence is shown as SEQ ID NO: 2 in CN106046152A.

[7] = target: T5, EGFR on SKOV3 and Aspc-1 tumor cells; experiment: flow cytometry on Aspc-1 tumor cells, anti-human IgG PE, MFI, curve fit; unit from the concentration axis and paragraph 62; no upper plateau within the range shown [table]
Method: as §3

[8] = target: T3, human EGFR.His antigen (Acro, Cat …); experiment: ELISA: EGFR his tag protein coated at 1 µg/mL, antibody at 50, 5, 0.5, 0.05 nM, HRP goat anti-human IgG Fc, OD450
Method: as §2, with “After washing the plates four times with PBST, 100 μL of TMB substrate was added to each well, and the reaction was allowed to proceed for 3-5 min. The reaction was stopped by adding 100 μL of 3N hydrochloric acid per well.” left out

[9] = target: T7, EGFR-D4 (F481-S645, P00533-1 (uniprot)) his tag antigen (human, UniProt P00533 481-645); experiment: ELISA: EGFR-D4 his tag antigen coated at 0.5 µg/mL, antibody at 2000, 200, 20, 2 nM, HRP goat anti-human IgG Fc, OD450
T7 construct: range 481-645; also called IV domain protein; EGFR-D4 protein; not shown: His tag
Method: as §2

[10] = target: T5, EGFR on SKOV3 and Aspc-1 tumor cells; experiment: flow cytometry on SKOV3 tumor cells, anti-human IgG PE, MFI, curve fit; unit from the concentration axis and paragraph 62; the curve still rises at the highest concentration (MFI about 9700 at about 250 nM) [table]
Method: as §3

[11] = target: T5, EGFR on SKOV3 and Aspc-1 tumor cells; experiment: flow cytometry on Aspc-1 tumor cells, anti-human IgG PE, MFI, curve fit; unit from the concentration axis and paragraph 62; the curve still rises at the highest concentration (MFI about 9000 at about 250 nM) [table]
Method: as §3

B1: E006 VHH-IgG4 antibody (antibody, V domains shown, not shown: a dimerising Fc or GST)
VH: EVQLVESGGGLVQPGGSLRLSCTASGFTFDTYTTSWERQAPGKEREMVAVLATTGGKPYYVESVKGRFTISRDASETAVTLQMNNLKPEDTAVYYCKATSRSPVNPHNYSGQGTLVTVSS
OD450 [1]: 3.13 OD450 | OD450 [2]: 3.3 OD450 | Kd [3]: 6.82 nM | koff [3]: 0.000255 s⁻¹ | kon [3]: 37400 M⁻¹ s⁻¹ | binding result [4]: no binding (tested: 2000 nM) | EC50 [5]: 11 nM | EC50 [6]: 0.5 nM | EC50 [7]: 12 nM

B2: E009 VHH-IgG4 antibody (antibody, V domains shown, not shown: a dimerising Fc or GST)
VH: QVQLVESGGGLVQPGGSLRLSCEASGRIDIIFTMGWYRQTPGNEREFVASVTNYNAKYADSVKGRFTISRENTENTAYLQMNSLKPEDTAIYVCHLNYASDYTEYDYYGQGTQVTVSS
OD450 [1]: 0.08 OD450 | OD450 [2]: 3.36 OD450 | binding result [8]: binds | binding result [9]: no binding (tested: 2000 nM) | binding result [4]: binds

B3: E001 VHH-IgG4 antibody (antibody, V domains shown, not shown: a dimerising Fc or GST)
VH: EVQLVESGGGLVQPGGSLRLSCTPSGSGFTIQAMTWYRQAPGKQRELVAIIHQGGSTDYSDSVRGRFTISRDNAKTAWYLQMNNLKPEDTAVYYCNVVPPLRVWGQGTQVTVSS
OD450 [1]: 0.76 OD450 | OD450 [2]: 3.3 OD450 | Kd [3]: 0.206 nM | koff [3]: 1.2e-05 s⁻¹ | kon [3]: 57900 M⁻¹ s⁻¹ | binding result [4]: no binding (tested: 2000 nM) | EC50 [6]: 0.32 nM | EC50 [10]: 74 nM | EC50 [11]: 58 nM
